Measurements published in US20200033338A1.

Key:
[1] = biological target: Torpedo 39MIR peptide-intein-chitin-binding domain (IChBD) fusion protein (Torpedo); experiment: Western blot of peptide-IChBD fusion (FIG. 7)
[2] = biological target: K10N/D70A/V75I/Q111D human 39MIR quadruple mutant, IChBD fusion (human); experiment: Western blot of peptide-IChBD fusion (FIG. 7)
[3] = biological target: V75I/Q111D human 39MIR double mutant, IChBD fusion (human); experiment: Western blot of peptide-IChBD fusion (FIG. 7)
Chain of V75I/Q111D human 39MIR double mutant, IChBD fusion (human) (chain, as listed by the source V75I Q111D V75I Q111D): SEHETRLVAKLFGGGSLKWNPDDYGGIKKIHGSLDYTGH

[4] = biological target: K10N/V75I/Q111D human 39MIR triple mutant, IChBD fusion (human); experiment: Western blot of peptide-IChBD fusion (FIG. 7)
Chain of K10N/V75I/Q111D human 39MIR triple mutant, IChBD fusion (human) (chain, as listed by the source K10N V75I Q111D K10N V75I Q111D): as the sequence (chain, as listed by the source V75I Q111D V75I Q111D) above, with K10N counted along it

[5] = biological target: K10N/D70A human 39MIR double mutant, IChBD fusion (human); experiment: Western blot of peptide-IChBD fusion (FIG. 7)
Chain of K10N/D70A human 39MIR double mutant, IChBD fusion (human) (chain, as listed by the source K10N D70A K10N D70A): as the sequence (chain, as listed by the source V75I Q111D V75I Q111D) above, with K10N, D22A, I27V, D35Q counted along it

[6] = biological target: K10N/Q111D human 39MIR double mutant, IChBD fusion (human); experiment: Western blot of peptide-IChBD fusion (FIG. 7)
Chain of K10N/Q111D human 39MIR double mutant, IChBD fusion (human) (chain, as listed by the source K10N Q111D K10N Q111D): as the sequence (chain, as listed by the source V75I Q111D V75I Q111D) above, with K10N, I27V counted along it

[7] = biological target: K10N/V75I human 39MIR double mutant, IChBD fusion (human); experiment: Western blot of peptide-IChBD fusion (FIG. 7)
Chain of K10N/V75I human 39MIR double mutant, IChBD fusion (human) (chain, as listed by the source K10N V75I K10N V75I): as the sequence (chain, as listed by the source V75I Q111D V75I Q111D) above, with K10N, D35Q counted along it

[8] = biological target: Torpedo 39MIR peptide-intein-chitin-binding domain (IChBD) fusion protein (Torpedo); experiment: Western blot of peptide-IChBD fusion (FIG. 5)
[9] = biological target: Torpedo 39MIR single mutant N10K, IChBD fusion (Torpedo); experiment: Western blot of peptide-IChBD fusion (FIG. 5)
Chain of Torpedo 39MIR single mutant N10K, IChBD fusion (Torpedo) (chain, as listed by the source N10K N10K): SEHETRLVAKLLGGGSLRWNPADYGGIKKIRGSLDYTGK

[10] = biological target: Torpedo 39MIR single mutant A70D, IChBD fusion (Torpedo); experiment: Western blot of peptide-IChBD fusion (FIG. 5)
Chain of Torpedo 39MIR single mutant A70D, IChBD fusion (Torpedo) (chain, as listed by the source A70D A70D): as the sequence (chain, as listed by the source N10K N10K) above, with K10N, A22D counted along it

[11] = biological target: Torpedo 39MIR single mutant R66K, IChBD fusion (Torpedo); experiment: Western blot of peptide-IChBD fusion (FIG. 5)
Chain of Torpedo 39MIR single mutant R66K, IChBD fusion (Torpedo) (chain, as listed by the source R66K R66K): as the sequence (chain, as listed by the source N10K N10K) above, with K10N, R18K counted along it

[12] = biological target: Torpedo 39MIR single mutant R79H, IChBD fusion (Torpedo); experiment: Western blot of peptide-IChBD fusion (FIG. 5)
Chain of Torpedo 39MIR single mutant R79H, IChBD fusion (Torpedo) (chain, as listed by the source R79H R79H): as the sequence (chain, as listed by the source N10K N10K) above, with K10N, R31H counted along it

[13] = biological target: Torpedo 39MIR single mutant L12F, IChBD fusion (Torpedo); experiment: Western blot of peptide-IChBD fusion (FIG. 5)
Chain of Torpedo 39MIR single mutant L12F, IChBD fusion (Torpedo) (chain, as listed by the source L12F L12F): as the sequence (chain, as listed by the source N10K N10K) above, with K10N, L12F counted along it

[14] = biological target: Torpedo 39MIR peptide-intein-chitin-binding domain (IChBD) fusion protein (Torpedo); experiment: Western blot of peptide-IChBD fusion (Table 3)
[15] = biological target: V75I human 39MIR mutant, IChBD fusion (human); experiment: Western blot of peptide-IChBD fusion (Table 3)
Chain of V75I human 39MIR mutant, IChBD fusion (human) (chain, as listed by the source V75I V75I): as the sequence (chain, as listed by the source V75I Q111D V75I Q111D) above, with D35Q counted along it

[16] = biological target: Q111D human 39MIR mutant, IChBD fusion (human); experiment: Western blot of peptide-IChBD fusion (Table 3)
Chain of Q111D human 39MIR mutant, IChBD fusion (human) (chain, as listed by the source Q111D Q111D): as the sequence (chain, as listed by the source V75I Q111D V75I Q111D) above, with I27V counted along it

[17] = biological target: K10N human 39MIR mutant, IChBD fusion (human); experiment: Western blot of peptide-IChBD fusion (Table 3)
Chain of K10N human 39MIR mutant, IChBD fusion (human) (chain, as listed by the source K10N K10N): as the sequence (chain, as listed by the source V75I Q111D V75I Q111D) above, with K10N, I27V, D35Q counted along it

[18] = biological target: Torpedo 39MIR single mutant K115H, IChBD fusion (Torpedo); experiment: Western blot of peptide-IChBD fusion (FIG. 5)
Chain of Torpedo 39MIR single mutant K115H, IChBD fusion (Torpedo) (chain, as listed by the source K115H K115H): as the sequence (chain, as listed by the source N10K N10K) above, with K10N, K39H counted along it

[19] = biological target: Torpedo 39MIR single mutant D111Q, IChBD fusion (Torpedo); experiment: Western blot of peptide-IChBD fusion (FIG. 5)
Chain of Torpedo 39MIR single mutant D111Q, IChBD fusion (Torpedo) (chain, as listed by the source D111Q D111Q): as the sequence (chain, as listed by the source N10K N10K) above, with K10N, D35Q counted along it

[20] = biological target: Torpedo 39MIR single mutant I75V, IChBD fusion (Torpedo); experiment: Western blot of peptide-IChBD fusion (FIG. 5)
Chain of Torpedo 39MIR single mutant I75V, IChBD fusion (Torpedo) (chain, as listed by the source I75V I75V): as the sequence (chain, as listed by the source N10K N10K) above, with K10N, I27V counted along it

[21] = biological target: Human 39MIR peptide-intein-chitin-binding domain (IChBD) fusion protein (human); experiment: Western blot of peptide-IChBD fusion (FIG. 7)
Chain of Human 39MIR peptide-intein-chitin-binding domain (IChBD) fusion protein (human) (chain, as listed by the source): as the sequence (chain, as listed by the source V75I Q111D V75I Q111D) above, with I27V, D35Q counted along it

[22] = biological target: Torpedo 39MIR peptide-intein-chitin-binding domain (IChBD) fusion protein (Torpedo); experiment: Western blot (FIG. 3)
[23] = biological target: K10N/D70A/V75I/Q111D human 39MIR quadruple mutant, IChBD fusion (human); experiment: Western blot (FIG. 7)
[24] = biological target: K10N/V75I/Q111D human 39MIR triple mutant, IChBD fusion (human); experiment: Western blot (FIG. 7)
[25] = biological target: Human 39MIR peptide-intein-chitin-binding domain (IChBD) fusion protein (human); experiment: Western blot of peptide-IChBD fusion (Table 3)
[26] = biological target: D70A human 39MIR mutant, IChBD fusion (human); experiment: Western blot of peptide-IChBD fusion (Table 3)
Chain of D70A human 39MIR mutant, IChBD fusion (human) (chain, as listed by the source D70A D70A): as the sequence (chain, as listed by the source V75I Q111D V75I Q111D) above, with D22A, I27V, D35Q counted along it

[27] = biological target: V75I human 39MIR mutant, IChBD fusion (human); experiment: Western blot
[28] = biological target: Q111D human 39MIR mutant, IChBD fusion (human); experiment: Western blot
[29] = biological target: K10N human 39MIR mutant, IChBD fusion (human); experiment: Western blot

Chain of Torpedo 39MIR peptide-intein-chitin-binding domain (IChBD) fusion protein (Torpedo) (chain, as listed by the source): as the sequence (chain, as listed by the source N10K N10K) above, with K10N counted along it
Chain of K10N/D70A/V75I/Q111D human 39MIR quadruple mutant, IChBD fusion (human) (chain, as listed by the source K10N D70A V75I Q111D K10N D70A V75I Q111D): as the sequence (chain, as listed by the source V75I Q111D V75I Q111D) above, with K10N, D22A counted along it

| Substance | fold-change in binding relative to Torpedo 39MIR [1] [fold] | fold-change in binding relative to Torpedo 39MIR [2] [fold] | fold-change in binding relative to Torpedo 39MIR [3] [fold] | fold-change in binding relative to Torpedo 39MIR [4] [fold] | fold-change in binding relative to Torpedo 39MIR [5] [fold] | fold-change in binding relative to Torpedo 39MIR [6] [fold] | fold-change in binding relative to Torpedo 39MIR [7] [fold] | fold-change in binding relative to Torpedo 39MIR [8] [fold] | fold-change in binding relative to Torpedo 39MIR [9] [fold] | fold-change in binding relative to Torpedo 39MIR [10] [fold] | fold-change in binding relative to Torpedo 39MIR [11] [fold] | fold-change in binding relative to Torpedo 39MIR [12] [fold] | fold-change in binding relative to Torpedo 39MIR [13] [fold] | fold-change in binding relative to Torpedo 39MIR [14] [fold] | fold-change in binding relative to Torpedo 39MIR [15] [fold] | fold-change in binding relative to Torpedo 39MIR [16] [fold] | fold-change in binding relative to Torpedo 39MIR [17] [fold] | fold-change in binding relative to Torpedo 39MIR [18] [fold] | fold-change in binding relative to Torpedo 39MIR [19] [fold] | fold-change in binding relative to Torpedo 39MIR [20] [fold] | further results |
| --- | --- | --- | --- | --- | --- | --- | --- | --- | --- | --- | --- | --- | --- | --- | --- | --- | --- | --- | --- | --- | --- |
| mAb 35 (antibody) | 1 | 1.7 | 0.92 | 2.97 | 0.31 | 2.31 | 1.1 | 1 | 0.29 | 0.93 | 0.62 | 1.91 | 1.42 | 1 | 0.03 | 0.06 | 0.01 | – | – | – | – |
| mAb 132A (antibody) | 1 | 0.99 | 3.34 | 2.46 | 0.16 | 1.07 | 1.25 | 1 | 0.03 | 0.2 | 1.55 | 1.65 | 1.1 | 1 | – | – | – | 0.4 | 0.07 | 0.06 | – |
| mAb 198 (antibody) | 1 | 0.99 | 2.71 | 2.52 | 0.72 | 1.19 | 1.79 | 1 | 0.82 | 1.08 | 1.03 | 0.97 | 0.9 | 1 | 0.65 | 0.59 | 0.23 | 1.07 | 0.16 | 0.16 | fold-change in binding relative to Torpedo 39MIR [21]: 0.09 fold; fold stronger binding than to the human MIR mimic [22]: 50 fold; fold improvement in binding compared to the human 39MIR [23]: 11 fold; fold improvement in binding compared to the human 39MIR [24]: 28 fold; fold-change in binding relative to Torpedo 39MIR [25]: 0.02 fold; fold-change in binding relative to Torpedo 39MIR [26]: 0.02 fold; fold improvement in binding compared to the human 39MIR [27]: 40 fold; fold improvement in binding compared to the human 39MIR [28]: 35.7 fold; fold improvement in binding compared to the human 39MIR [29]: 13 fold |
